Assay results: publication PMC5548745, “Agonist-induced dimer dissociation as a macromolecular step in G protein-coupled receptor signaling” (Nature Communications, 2017)

Tests used:
V5-FZD6-mCherry = experiment: dcFRAP of V5-FZD6-mCherry/CB1-GFP (negative control); format: cell-based, human; conditions: HEK293
Description: For dual color FRAP experiments, cells grown in four compartment 35 mm glass bottom dishes were washed three times with BE buffer[19] (150 mM NaCl, 2.5 mM KCl, 10 mM HEPES, 12 mM glucose, 0.5 mM CaCl2, and 0.5 mM MgCl2). Then, the cells were incubated at RT for 30 min with biotin-conjugated goat polyclonal anti-V5 antibody (Bethyl) diluted 1:100 in BE buffer supplemented with 2.5% bovine serum albumin. For antibody-mediated cross-linking, avidin was added and incubated for 15 min and washed two times with BE buffer before the experiments were performed. In Fig. 4, dcFRAP experiments are presented that employ chemical surface crosslinking to visualize assembly of FZD6 with DVL or heterotrimeric G proteins according to previously published protocols. Live cell imaging experiments were carried out using a Zeiss 710 laser scanning microscope. Images were acquired using a 40×, 1.2 NA C-Apochromat objective and the 488 nm and the 561 nm laser lines were used to excite GFP and mCherry fluorophores, respectively. Photobleaching was performed by 100% laser illumination of a 1.80 × 1.80 µm area placed over the cell plasma membrane. Fluorescence was measured pre- and post-bleach using low-intensity illumination for a total time period of 100 s. Average pixel intensity was measured using the ZEN2013 software, corrected for background fluctuations and bleaching artifacts and normalized to pre-bleached intensity. The recovered mobile fraction (F m) was calculated as follows: F m = (I P–I 0)/(I I–I 0), where I I is the initial intensity measured prior to bleaching, I 0 is the immediate fluorescence intensity post-bleaching and I P is intensity value post-bleaching. The mobile fraction was defined by the average of the fluorescence recovery assessed between time 85–101 s (including pre-bleach measurements). We excluded experiments in which the extracellularly tagged receptors were not sufficiently immobilized after the crosslinking procedure (cutoff at 40% crosslinking-induced reduction in mobile fraction). […]

FZD6–FZD6 dimer = experiment: dcFRAP of V5-FZD6-mCherry/FZD6-GFP (FZD6 dimerization); format: cell-based, human; conditions: HEK293, 85–101 s, mean ± s.e.m.
Description: For dual color FRAP experiments, cells grown in four compartment 35 mm glass bottom dishes were washed three times with BE buffer[19] (150 mM NaCl, 2.5 mM KCl, 10 mM HEPES, 12 mM glucose, 0.5 mM CaCl2, and 0.5 mM MgCl2). Then, the cells were incubated at RT for 30 min with biotin-conjugated goat polyclonal anti-V5 antibody (Bethyl) diluted 1:100 in BE buffer supplemented with 2.5% bovine serum albumin. For antibody-mediated cross-linking, avidin was added and incubated for 15 min and washed two times with BE buffer before the experiments were performed. In Fig. 4, dcFRAP experiments are presented that employ chemical surface crosslinking to visualize assembly of FZD6 with DVL or heterotrimeric G proteins according to previously published protocols. Live cell imaging experiments were carried out using a Zeiss 710 laser scanning microscope. Images were acquired using a 40×, 1.2 NA C-Apochromat objective and the 488 nm and the 561 nm laser lines were used to excite GFP and mCherry fluorophores, respectively. Photobleaching was performed by 100% laser illumination of a 1.80 × 1.80 µm area placed over the cell plasma membrane. Fluorescence was measured pre- and post-bleach using low-intensity illumination for a total time period of 100 s. Average pixel intensity was measured using the ZEN2013 software, corrected for background fluctuations and bleaching artifacts and normalized to pre-bleached intensity. The recovered mobile fraction (F m) was calculated as follows: F m = (I P–I 0)/(I I–I 0), where I I is the initial intensity measured prior to bleaching, I 0 is the immediate fluorescence intensity post-bleaching and I P is intensity value post-bleaching. The mobile fraction was defined by the average of the fluorescence recovery assessed between time 85–101 s (including pre-bleach measurements). We excluded experiments in which the extracellularly tagged receptors were not sufficiently immobilized after the crosslinking procedure (cutoff at 40% crosslinking-induced reduction in mobile fraction). Kinetic determination of mobile fractions of crosslinked V5-FZD6-mCherry and FZD6-GFP with WNT stimulation over time were performed in one cell culture well. Measurements for each time point were performed on separate cells.
Statistical and graphical analysis was performed using Graph Pad Prism 5 software. Data were analyzed by two-tailed t-test or one-way ANOVA with Fisher’s least significant difference post hoc analysis. Curve fitting of FRAP data was done with a two-phase association nonlinear function using the least square fit. Data for receptor titration in the presence of C59 and output to P-ERK1/2 in Fig. 6h was fit to a linear regression model. All experiments were repeated at least three times in independent experiments (not representing technical replicates). For single cell analysis (dcFRAP), the number of the individual ROIs obtained from several cells in at least three independent experiments is provided in the figure legends. Data from individual ROIs are summarized for data presentation providing the sum of independent observations. Significance levels are given as: *P < 0.05; **P < 0.01; ***P < 0.001. Data in FRAP curves and bar graphs (FRAP) are presented as mean ± s.e.m.

[1] = system: ERK1/2 phosphorylation in HEK293 cells; experiment: P-ERK1/2 immunoblot, HEK293 cells expressing SNAP-FZD6 constructs; format: cell-based
Description: Fig. 6 Relationship between FZD6 dimerization and phosphorylation of ERK1/2. a Mouse lung epithelial (MLE-12) cells were stimulated with WNT-5A (300 ng ml^−1) for 0, 2.5, 5, 10, 20 min. Cell lysates were analyzed for P-ERK1/2 and β-actin by immunoblotting. Additional information in Supplementary Fig. 6. b Bar graph summarizes three independent experiments. Densitometry data were normalized to the unstimulated control. […] Additional information in Supplementary Fig. 6. SNAP-FZD6 wt- and SNAP-FZD6 dimer mutant-induced ERK1/2 phosphorylation in the absence e and presence f of the porcupine inhibitor C59 (5 µM, overnight) were probed by immunoblotting for the SNAP-tag, P-ERK1/2, total ERK1/2 and β-actin. g The bar graph summarizes densitometry data of P-ERK1/2 normalized to total ERK1/2 from 6 different experiments. P = 0.0005; F (2, 15) = 13.08. ***P < 0.001. Empty vector transfection was used as mock. h Increasing amounts of plasmid of either SNAP-FZD6 wt or SNAP-FZD6 dimer mutant in the presence of C59 show a dose-dependent increase in P-ERK1/2 only with the dimer mutant. Data from three independent experiments for the dimer mutant were fit to a linear least-squares model (slope = 0.40 ± 0.10; R ^2 = 0.5943) and this line is shown superimposed. […] This dissociation-dependent activation can be evoked by agonist (WNT^high) or mutation of the dimer interface (symbolized by red stars). WNT^low conditions can be achieved in the presence of C59, which reduces FZD6 wt signaling
MLE-12 or HEK293 cells (ATCC) were plated in a 24- or 48-well plate at a density of 100,000 or 50,000 cells/well, respectively. After 24 h, cells were transfected using Lipofectamine 2000 according to the manufacturer’s instructions. Cells were stimulated (24 h post-transfection) with 300 ng ml^−1 recombinant carrier-free WNT-5A (CF WNT-5A; R&D Systems). Stimulation was stopped by the addition of lysis buffer (1% NP-40, 150 mM NaCl, 50 mM Tris/HCl pH 8). Lysates were sonicated and analyzed by 7.5 or 10% Mini-PROTEAN TGX precast polyacrylamide gels (Bio-Rad) and transferred to PVDF membranes using the Trans-Blot Turbo system (Bio-Rad). After blocking with 5% milk or BSA in TBS-T, membranes were incubated with primary antibodies in blocking buffer: mouse anti-β-actin (1:30,000; Sigma #A5441), rabbit anti-FZD6 (1:1000; NovusBio #NBP1-00830), rabbit anti-Phospho-p44/42 MAPK (ERK1/2) (Thr202/Tyr204) (1:1000; Cell Signaling Technology #9101 L), rabbit anti-p44/42 MAPK (ERK1/2) (1:1000; Cell Signaling Technology #9102), rabbit anti-Phospho-C-RAF (Ser338) (1:1000; Cell Signaling Technology #56A6), rabbit anti-SNAP tag (1:1000, New England Biolabs #P9310S), and rabbit anti-HA (1:4000, abcam #ab9110) overnight at 4 °C. Proteins were detected with horseradish peroxidase-conjugated secondary antibodies (goat anti-rabbit and goat anti-mouse (Pierce)) and Clarity Western ECL Blotting Substrate (Bio-Rad). All uncropped immunoblots can be found in the Supplementary Information.

Molecule	CL-induced reduction in mobile fraction of CB1-GFP (V5-FZD6-mCherry; antibody-treated, co-expressing V5-FZD6-mCherry)	mobile fraction, CB1 experiment after CL (V5-FZD6-mCherry; with crosslinking, n=34)	mobile fraction, CB1 experiment before CL (V5-FZD6-mCherry; without crosslinking, n=29)	mobile fraction of FZD6-GFP before CL (FZD6–FZD6 dimer; basal, without biotinylated anti-V5/avidin crosslinking, N = 21 ROIs)	mobile fraction of FZD6-GFP after CL (FZD6–FZD6 dimer; with biotinylated anti-V5/avidin crosslinking, N = 31 ROIs)	P-ERK1/2 induction in presence of C59 ([1]; HEK293, C59 5 µM overnight)	effect of overexpression on basal P-ERK1/2 without C59 ([1]; serum-starved HEK293, no C59)
CB1-GFP: GFP-tagged cannabinoid CB1 receptor, negative control (protein, left off: GFP, end not stated, kept, GFP-tagged cannabinoid CB1 receptor, negative control) MKSILDGLADTTFRTITTDLLYVGSNDIQYEDIKGDMASKLGYFPQKFPLTSFRGSPFQEKMTAGDNSPLVPAGDTTNITEFYNKSLSSFKENEENIQCGENFMDMECFMILNPSQQLAIAVLSLTLGTFTVLENLLVLCVILHSRSLRCRPSYHFIGSLAVADLLGSVIFVYSFVDFHVFHRKDSPNVFLFKLGGVTASFTASVGSLFLTAIDRYISIHRPLAYKRIVTRPKAVVAFCLMWTIAIVIAVLPLLGWNCKKLQSVCSDIFPLIDETYLMFWIGVTSVLLLFIVYAYMYILWKAHSHAVRMIQRGTQKSIIIHTSEDGKVQVTRPDQARMDIRLAKTLVLILVVLIICWGPLLAIMVYDVFGKMNKLIKTVFAFCSMLCLLNSTVNPIIYALRSKDLRHAFRSMFPSCEGTAQPLDNSMGDSDCLHKHANNTASMHRAAESCIKSTVKIAKVTMSVSTDTSAEAL	did not exhibit a reduction in the mobile fraction of CB1-GFP upon crosslinking	77,12 ± 2,601%	78,48 ± 2,373%	–	–	–	–
FZD6 wt: wild-type FZD6 receptor construct (SNAP-tagged in ERK assays; GFP-tagged in b181) (protein, left off: V5 (on the crosslinked copy), N-terminal, kept | mCherry (on the crosslinked copy), C-terminal, kept | GFP (on the other, mobile copy), C-terminal, kept) HSLFTCEPITVPRCMKMAYNMTFFPNLMGHYDQSIAAVEMEHFLPLANLECSPNIETFLCKAFVPTCIEQIHVVPPCRKLCEKVYSDCKKLIDTFGIRWPEELECDRLQYCDETVPVTFDPHTEFLGPQKKTEQVQRDIGFWCPRHLKTSGGQGYKFLGIDQCAPPCPNMYFKSDELEFAKSFIGTVSIFCLCATLFTFLTFLIDVRRFRYPERPIIYYSVCYSIVSLMYFIGFLLGDSTACNKADEKLELGDTVVLGSQNKACTVLFMLLYFFTMAGTVWWVILTITWFLAAGRKWSCEAIEQKAVWFHAVAWGTPGFLTVMLLAMNKVEGDNISGVCFVGLYDLDASRYFVLLPLCLCVFVGLSLLLAGIISLNHVRQVIQHDGRNQEKLKKFMIRIGVFSGLYLVPLVTLLGCYVYEQVNRITWEITWVSDHCRQYHIPCPYQAKAKARPELALFMIKYLMTLIVGISAVFWVGSKKTCTEWAGFFKRNRKRDPISESRRVLQESCEFFLKHNSKVKHKKKHYKPSSHKLKVISKSMGTSTGATANHGTSAVAITSHDYLGQETLTEIQTSPETSMREVKADGASTPRLREQDCGEPASPAASISRLSGEQVDGKGQAGSVSESARSEGRISPKSDITDTGLAQSNNLQVPSSSEPSSLKGSTSLLVHPVSGVRKEQGGGCHSDT	–	–	–	80,78 ± 2,053%	70,69 ± 2,416%	reduced to basal	increased basal P-ERK1/2
